Read-outs that look alike come from different tables or passages of the source.

Test in all cases: SPR
(In general: SPR reads the build-up and loss of mass on a sensor chip optically.)

Assay [1] concerns the target Recombinant human IL-17A (human, UniProt Q16552 20-155, limits assumed).
In assay [2] the target is T1, His-tagged Influenza B Hemagglutinin (B/Brisbane/60/2008) (Influenza B (B/Brisbane/60/2008)).
The target in assay [3] is T2, His-tagged recombinant human CD-19 (human, UniProt P15391 20-291, limits assumed).
T2 sequence (looked up): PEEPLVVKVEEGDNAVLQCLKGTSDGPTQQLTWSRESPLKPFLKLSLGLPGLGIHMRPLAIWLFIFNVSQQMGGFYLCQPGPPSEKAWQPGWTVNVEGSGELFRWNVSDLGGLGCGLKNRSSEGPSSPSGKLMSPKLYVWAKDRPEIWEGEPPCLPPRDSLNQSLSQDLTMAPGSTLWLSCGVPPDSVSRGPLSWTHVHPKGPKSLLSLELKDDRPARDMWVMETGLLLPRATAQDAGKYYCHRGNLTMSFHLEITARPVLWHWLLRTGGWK

Assay [4] has as its target T1, His-tagged Influenza B Hemagglutinin …. The source holds these as a separate data set.
Assay [5] concerns the target T2, His-tagged recombinant human CD-19. The source holds these as a separate data set.

Recombinant human IL-17A, sequence (Q16552 20-155 limits assumed): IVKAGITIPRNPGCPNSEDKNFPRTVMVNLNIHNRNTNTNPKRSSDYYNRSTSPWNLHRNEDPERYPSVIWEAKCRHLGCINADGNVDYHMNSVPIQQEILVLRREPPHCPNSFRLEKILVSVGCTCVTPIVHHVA

B1: Design 2816 bispecific antibody, System A (CAT-2200 H1/L1 & Pertuzumab H2/L2) (bispecific antibody)
chain 1: not shown
chain 2: NFMLTQPHSVSESPGKTVTISCTRSSGSLANYYVQWYQQRPGSSPTIVIFANNQRPSGVPDRFSGSIDSSSNSASLTISGLKTEDEADYYCQTYDPYSVVFGGGTKLTVLGQPKAAPSVTLFPPSSEELQANKATLVCLISDFYPGAVTVAWKADSSPVKAGVETTTPSKQSNNKYAASSYLELTPEQWKSHRSYSCQVTHEGSTVEKTVAPTECS
chain 3: not shown
chain 4: DIQMTQSPSSLSASVGDRVTITCKASQDVSIGVAWYQQKPGKAPKLLIYSASYRYTGVPSRFSGSGSGTDFTLTISSLQPEDFATYYCQQYYIYPYTFGQGTKVEIKRTVAAPSVFIFPPSDERLKSGTASVVCLLNNFYPREAKVQWKVDNALQSGNSKESVTEQDSKDSTYSLSSRLTLSKADYEKHKVYACEVTHQGLSSPVTKSFNRGEC
B1: in assay [1], the dissociation constant (Kd) stood at 0.51 nM.

B2: Design 4320 bispecific antibody, System C (CR8071 H1/L1 & SGN-CD19a H2/L2) (bispecific antibody)
chain 1: QVQLVQSGAEVKKPGASVRVSCRASGYIFTESGITWVRQAPGQGLEWMGWISGYSGDTKYAQKLQGRVTMTKDTSTTTAYMELRSLRYDDTAVYYCARDVQYSGSYLGAYYFDYWSPGTLVTVSSASTKGPSVFPLAPSSKSTSGGTAALGCKVKDYFPEPVTVSWNSGALTSGVHTGPAVLQSSGLYSLSSVVTVPSSSLGTQTYICNVNHKPSNTKVDKKVEPKSCDKTHTCPPCPAPELLGGPSVFLFPPKPKDTLMISRTPEVTCVVVDVSHEDPEVKFNWYVDGVEVHNAKTKPREEQYNSTYRVVSVLTVLHQDWLNGKEYKCKVSNKALPAPIEKTISKAKGQPREPQVYVYPPSRDELTKNQVSLTCLVKGFYPSDIAVEWESNGQPENNYKTTPPVLDSDGSFALVSKLTVDKSRWQQGNVFSCSVMHEALHNHYTQKSLSLSPG
chain 2: not shown
chain 3: not shown
chain 4: EIVLTQSPATLSLSPGERATLSCSASSSVSYMHWYQQKPGQAPRLLIYDTSKLASGIPARFSGSGSGTDFTLTISSLEPEDFAVYYCFQGSVYPFTFGQGTKLEIKRTVAAPSVFIFPPSDEKLKSGTASVVCALNNFYPREAKVQWKVDNALQSGNSQESVTEQDSKDSTYSLSSRLTLSKADYEKHKVYACEVTHQGLSSPVTKSFNRGEC
Turning to B2, the Kd in assay [2] was found to be 0.49 nM; in assay [3], 258 nM.

B3: Design 2816 bispecific antibody, System C (CR8071 H1/L1 & SGN-CD19a H2/L2) (bispecific antibody)
chain 1: QVQLVQSGAEVKKPGASVRVSCRASGYIFTESGITWVRQAPGQGLEWMGWISGYSGDTKYAQKLQGRVTMTKDTSTTTAYMELRSLRYDDTAVYYCARDVQYSGSYLGAYYFDYWSPGTLVTVSSASTKGPSVFPLAPSSKSTSGGTAALGCLVKDYFPEPVTVSWNSGALTSGVHTFPAVLKSSGLYSLSSVVTVPSSSLGTQTYICNVNHKPSNTKVDKKVEPKSCDKTHTCPPCPAPELLGGPSVFLFPPKPKDTLMISRTPEVTCVVVDVSHEDPEVKFNWYVDGVEVHNAKTKPREEQYNSTYRVVSVLTVLHQDWLNGKEYKCKVSNKALPAPIEKTISKAKGQPREPQVYVYPPSRDELTKNQVSLTCLVKGFYPSDIAVEWESNGQPENNYKTTPPVLDSDGSFALVSKLTVDKSRWQQGNVFSCSVMHEALHNHYTQKSLSLSPG
chain 2: not shown
chain 3: not shown
chain 4: EIVLTQSPATLSLSPGERATLSCSASSSVSYMHWYQQKPGQAPRLLIYDTSKLASGIPARFSGSGSGTDFTLTISSLEPEDFAVYYCFQGSVYPFTFGQGTKLEIKRTVAAPSVFIFPPSDERLKSGTASVVCLLNNFYPREAKVQWKVDNALQSGNSKESVTEQDSKDSTYSLSSRLTLSKADYEKHKVYACEVTHQGLSSPVTKSFNRGEC
As for B3, the figures for the Kd in assay [4] and in assay [5] were 0.42 nM and 281 nM, respectively.

In general, Kd refers to the free concentration of one partner at which half of the binding sites on the other are occupied at equilibrium, for simple one-to-one binding.

Source of the values: US20190338048A1 (published 2019).
